What all share (experiment): pull-down
Assay [1] addresses T1, ΔWRC230 (human, UniProt Q7L576 1-1253; Q9Y2A7 1-1128; Q92558 1-230; Q9NYB9 1-158; Q8WUW1 1-75).
Assay [2] concerns the target T2, WRC230WCA (human, UniProt Q7L576 1-1253; Q9Y2A7 1-1128; Q92558 1-230; Q92558 485-559; Q9NYB9 1-158; …).
The target in assay [3] is T1, ΔWRC230. This is another data set of the same source.
In assay [4] the target is T2, WRC230WCA. The source holds these as a separate data set.

Where two headings read alike, the source gives them in different places.

B1: GST-Arf1 (natural protein)
chain: not shown
For B1, the dissociation constant Kd – broadly, the concentration at which binding is half-saturated – is roughly 0.66 µM with ΔWRC230 [1], roughly 8.2 µM in the assay with WRC230WCA [2], roughly 22.6 µM with ΔWRC230 [3] and roughly 107 µM in the assay with WRC230WCA [4].

The values above are taken from article doi:10.1101/2022.05.13.491857 (bioRxiv, 2022).
